Results as given in patent US6562591.

B1: HA-Tnik(WT), full length human Tnik isoform 1 with N-terminal HA epitope tag (protein)
chain: AYPYDVPDYAMASDSPARSLDEIDLSALRDPAGIFELVELVGNGTYGQVYKGRHVKTGQLAAIKVMDVTGDEEEEIKQEINMLKKYSHHRNIATYYGAFIKKNPPGMDDQLWLVMEFCGAGSVTDLIKNTKGNTLKEEWIAYICREILRGLSHLHQHKVIHRDIKGQNVLLTENAEVKLVDFGVSAQLDRTVGRRNTFIGTPYWMAPEVIACDENPDATYDFKSDLWSLGITAIEMAEGAPPLCDMHPMRALFLIPRNPAPRLKSKKWSKKFQSFIESCLVKNHSQRPATEQLMKHPFIRDQPNERQVRIQLKDHIDRTKKKRGEKDETEYEYSGSEEEEEENDSGEPSSILNLPGESTLRRDFLRLQLANKERSEALRRQQLEQQQRENEEHKRQLLAERQKRIEEQKEQRRRLEEQQRREKELRKQQEREQRRHYEEQMRREEERRRAEHEQEYIRRQLEEEQRQLEILQQQLLHEQALLLEYKRKQLEEQRQAERLQRQLKQERDYLVSLQHQRQEQRPVEKKPLYHYKEGMSPSEKPAWAKEVEERSRLNRQSSPAMPHKVANRISDPNLPPRSESFSISGVQPARTPPMLRPVDPQIPHLVAVKSQGPALTASQSVHEQPTKGLSGFQEALNVTSHRVEMPRQNSDPTSENPPLPTRIEKFDRSSWLRQEEDIPPKVPQRTTSISPALARKNSPGNGSALGPRLGSQPIRASNPDLRRTEPILESPLQRTSSGSSSSSSTPSSQPSSQGGSQPGSQAGSSERTRVRANSKSEGSPVLPHEPAKVKPEESRDITRPSRPASYKKAIDEDLTALAKELRELRIEETNRPMKKVTDYSSSSEESESSEEEEEDGESETHDGTVAVSDIPRLIPTGAPGSNEQYNVGMVGTHGLETSHADSFSGSISREGTLMIRETSGEKKRSGHSDSNGFAGHINLPDLVQQSHSPAGTPTEGLGRVSTHSQEMDSGTEYGMGSSTKASFTPFVDPRVYQTSPTDEDEEDEESSAAALFTSELLRQEQAKLNEARKISVVNVNPTNIRPHSDTPEIRKYKKRFNSEILCAALWGVNLLVGTENGLMLLDRSGQGKVYNLINRRRFQQMDVLEGLNVLVTISGKKNKLRVYYLSWLRNRILHNDPEVEKKQGWITVGDLEGCIHYKVVKYERIKFLVIALKNAVEIYAWAPKPYHKFMAFKSFADLQHKPLLVDLTVEEGQRLKVIFGSHTGFHVIDVDSGNSYDIYIPSHIQGNITPHAIVILPKTDGMEMLVCYEDEGVYVNTYGRITKDVVLQWGEMPTSVAYIHSNQIMGWGEKAIEIRSVETGHLDGVFMHKRAQRLKFLCERNDKVFFASVRSGGSSQVFFMTLNRNSMMNW
B2: HA-Tnik(KM), kinase mutant form of Tnik with N-terminal HA epitope tag (protein)
chain: AYPYDVPDYAMASDSPARSLDEIDLSALRDPAGIFELVELVGNGTYGQVYKGRHVKTGQLAAIRVMDVTGDEEEEIKQEINMLKKYSHHRNIATYYGAFIKKNPPGMDDQLWLVMEFCGAGSVTDLIKNTKGNTLKEEWIAYICREILRGLSHLHQHKVIHRDIKGQNVLLTENAEVKLVDFGVSAQLDRTVGRRNTFIGTPYWMAPEVIACDENPDATYDFKSDLWSLGITAIEMAEGAPPLCDMHPMRALFLIPRNPAPRLKSKKWSKKFQSFIESCLVKNHSQRPATEQLMKHPFIRDQPNERQVRIQLKDHIDRTKKKRGEKDETEYEYSGSEEEEEENDSGEPSSILNLPGESTLRRDFLRLQLANKERSEALRRQQLEQQQRENEEHKRQLLAERQKRIEEQKEQRRRLEEQQRREKELRKQQEREQRRHYEEQMRREEERRRAEHEQEYIRRQLEEEQRQLEILQQQLLHEQALLLEYKRKQLEEQRQAERLQRQLKQERDYLVSLQHQRQEQRPVEKKPLYHYKEGMSPSEKPAWAKEVEERSRLNRQSSPAMPHKVANRISDPNLPPRSESFSISGVQPARTPPMLRPVDPQIPHLVAVKSQGPALTASQSVHEQPTKGLSGFQEALNVTSHRVEMPRQNSDPTSENPPLPTRIEKFDRSSWLRQEEDIPPKVPQRTTSISPALARKNSPGNGSALGPRLGSQPIRASNPDLRRTEPILESPLQRTSSGSSSSSSTPSSQPSSQGGSQPGSQAGSSERTRVRANSKSEGSPVLPHEPAKVKPEESRDITRPSRPASYKKAIDEDLTALAKELRELRIEETNRPMKKVTDYSSSSEESESSEEEEEDGESETHDGTVAVSDIPRLIPTGAPGSNEQYNVGMVGTHGLETSHADSFSGSISREGTLMIRETSGEKKRSGHSDSNGFAGHINLPDLVQQSHSPAGTPTEGLGRVSTHSQEMDSGTEYGMGSSTKASFTPFVDPRVYQTSPTDEDEEDEESSAAALFTSELLRQEQAKLNEARKISVVNVNPTNIRPHSDTPEIRKYKKRFNSEILCAALWGVNLLVGTENGLMLLDRSGQGKVYNLINRRRFQQMDVLEGLNVLVTISGKKNKLRVYYLSWLRNRILHNDPEVEKKQGWITVGDLEGCIHYKVVKYERIKFLVIALKNAVEIYAWAPKPYHKFMAFKSFADLQHKPLLVDLTVEEGQRLKVIFGSHTGFHVIDVDSGNSYDIYIPSHIQGNITPHAIVILPKTDGMEMLVCYEDEGVYVNTYGRITKDVVLQWGEMPTSVAYIHSNQIMGWGEKAIEIRSVETGHLDGVFMHKRAQRLKFLCERNDKVFFASVRSGGSSQVFFMTLNRNSMMNW

Molecular target: Gelsolin (Sigma)

Protein	phosphorylation of Gelsolin in an in vitro kinase assay
B1	Wild type Tnik, but not the kinase mutant form of Tnik, phosphorylated Gelsolin in vitro
B2	Wild type Tnik, but not the kinase mutant form of Tnik, phosphorylated Gelsolin in vitro
